In patent US20260374864 (published 2026):

Molecular target: human CD22, His-tagged recombinant (human, UniProt P20273)
Test: SPR

human CD22, His-tagged recombinant, sequence (P20273 20-687): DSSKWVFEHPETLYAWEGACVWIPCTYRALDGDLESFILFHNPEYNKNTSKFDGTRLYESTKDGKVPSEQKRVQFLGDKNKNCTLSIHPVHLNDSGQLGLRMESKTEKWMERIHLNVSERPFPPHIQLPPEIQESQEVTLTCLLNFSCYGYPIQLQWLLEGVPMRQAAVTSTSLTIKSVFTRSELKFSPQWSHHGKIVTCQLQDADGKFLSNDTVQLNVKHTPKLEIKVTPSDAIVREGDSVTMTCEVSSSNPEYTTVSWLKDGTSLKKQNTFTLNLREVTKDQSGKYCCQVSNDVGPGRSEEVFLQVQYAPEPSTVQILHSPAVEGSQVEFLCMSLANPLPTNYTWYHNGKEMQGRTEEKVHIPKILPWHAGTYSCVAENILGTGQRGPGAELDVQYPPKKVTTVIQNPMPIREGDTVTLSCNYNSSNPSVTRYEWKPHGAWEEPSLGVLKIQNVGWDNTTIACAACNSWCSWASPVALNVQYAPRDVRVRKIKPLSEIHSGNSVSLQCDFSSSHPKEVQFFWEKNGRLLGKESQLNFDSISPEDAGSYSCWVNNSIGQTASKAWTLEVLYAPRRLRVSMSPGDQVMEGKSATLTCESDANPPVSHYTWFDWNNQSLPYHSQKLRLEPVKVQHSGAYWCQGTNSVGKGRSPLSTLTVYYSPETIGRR

Kd | Binder
0.358 nM | CD22-mAb-2 (antibody, V domains shown) VH: QVTLRESGPALVKPTQTLTLTCTFSGISLTTSGMCVSWIRQPPGKALEWLALIDWDGDNYYSTSLKTRLTISKDTSKNQVVLTMASMDPVDTATYYCARMGYTYGYDAFDIWGQGTMVTVSS VL: EIVLTQSPEFQSVTPTEKVTITCRASQSIGSLLHWYQQKPDQSPKLLIKFASQSLSGVPSRFSGSGSGTDFTLTINSLEAEDAATYYCHQSRSLPFTFGPGTKVDIN
2.59 nM | CD22-mAb-4 (antibody, V domains shown) VH: QVQLVESGGGVVQPGRSLRLSCAASGFTFSSYGMHWVRQAPGKGLEWVAIIYYDGSKKYYADSVKGRFTISRDNSKNTLYLQMNSLRAEDTAVYYCARELTGDAFDIWGQGTKVTVSS VL: EIVLTQSPDFQSVTPKEKVTITCRASQSIGSSLHWYQQKPDQSPKLLIKYASQSFSGVPSKFIGSGSGTDFTLTINSLEAEDAATFYCHQSSTLPYTFGQGTKLEIK
0.0377 nM | CD22-mAb-1 (antibody, V domains shown) VH: QVQLVQSGAEVKKPGASVKVSCKASGYTFTGYYIHWVRQAPGQGLEWMGWINPNSGGTNYAQKFQGRVTMTRDTSIGTAYMELSRLRSDDTAIYYCTREDTWNYIDYWGQGTLVTVSS VL: DIQMTQSPSSLSASVGDRVTITCRASQSISSHLNWYQQKPGKAPKLLIYAASSLHSGVPSRFSGSGSGTDFTLTISSLQPEDFATYCCQQSYSTPRTFGQGTKVEIK
1.7 nM | CD22-mAb-3 (antibody, V domains shown) VH: QVTLRESGPALVKTTQTLTLTCTFSGFSLSTSGMCVSWIRQPPGKALEWLALIDWDDDKYYSTSLKTRLTISKDTSKSQVVLTMTSMDPVDTATYYCARIRYIYGYDYFDYWGQGTLVTVSS VL: DIQMTQSPSSLSASVGDRVTITCRASQRISSQLNWYQQKPGKAPKLLIYAASSLQSGVPSRFSGSGSGTEFTLTISSLQPEDIATYCCQQTYSKPITFGQGTRLEIK
